One substance from article PMC7247576 can be followed below.

Holding throughout (experiment): EMSA
Holding throughout (details): tetrahydrofuran abasic residue (F); EMSA: 50 mM Tris-HCl pH 8.0, 100 mM NaCl, 1 mM DTT, 50 nM FAM-AP-DNA, 4 °C, 30 min; 5% native PAG. Fluorescence: 50 mM HEPES pH 8.0, 100 mM NaCl, 4 mM DTT …
(Mobility shift assays separate free from complexed probe on a gel.)

In data set [1] the test system is APE1 (full-length) (Homo sapiens).
The subject of data set [2] is APE1NΔ35 (Homo sapiens).
Data set [3] relates to APE1NΔ61 (Homo sapiens).

Regarding “AP-DNA (32-mer duplex with synthetic abasic site)”, the K half in data set [1] was 120 nM; in data set [2], 200 nM; in data set [3] it was 210 nM.
